This is an account of results in article PMC5757175.

Assay [1] has as its target myosin subfragment-1 (S1) from rabbit skeletal muscle (rabbit).
For assay [2] the target is unchanged. The source holds these as a separate data set.

For “central domain of Mus musculus UNC-45B (domain or fragment)”, in assay [1], the apparent Kd of the inhibition of actin filament gliding velocity (myosin S1 fixed on nitrocellulose-coated coverslips, central domain titrated in the assay buffer; 2.2 uM halted gliding) is 400 nM.

B1: full-length Mus musculus UNC-45B (natural protein)
chain: MAEAEAAQLKEEGNRHFQLQDYKAATKSYSQALKLTKDKALLATLYRNRAACGLKMESYAQAASDASRAIDINSADIKALYRRCQALEHLGKLDQAFKDVQRCATLEPRNQNFQETLRRLNTSIQEQLRVQFSTDSRVQTMFEILLNENSEADKREKAANNLIVLGREEAGAERIFQSNGVALLLQLMNTQRPELLLAAVRTLSGMCSGHRARATAILHAVRIDRICSLMALENEEMSLAVCNLLQAIIDSLSGEDKREHRGKEEALVLDTKKDLKQITSHLLDMLVSKKVSGQGRDQALNLLNKNVPRKDLSIHDNSRTIYVVDNGLRKILKVVGQVPDLPSCLPLTDNTRMLASILINKLYDDLRCDPERDHFRKICEEYITSKFDPQDMDKNVNAIQTVSGILQGPFDLGNQLLGMKGVMEMMVALCGSEREADQLVAVEALIHASTKLSRATFIITNGVTLLKQIYKTTKNEKIKIRTLVGLCKLGSAGGSDYGLRQFAEGSTEKLAKQCRKWLCNTAIDTRTRRWAVEGLAYLTLDADVKDDFVQDIPALQAMFELAKARTSDKTILYSVANTLVNCTNSYDVKEVVPELVQLAKFSKQHVPEEHPKDKKDFVDLRVKRLLKAGVISALACMVKADSAILTDQTKELLARVFLALCDNPKDRGTIVAQGGGKALIPLALEGTDVGKVKAAHGLAKIAAVSNPDIAFPGERVYEVVRPLVSLLDTQRDGLQNYEALLGLTNLSGRSDKLRQKIFKEKALPDIENYMFENHDQLRQAATECMCNMVLNKEVQERFLADGNDRLKLVVLLCGEDDHKLQNAAAGALAMLTAAHKKLCLKMTEVTTQWLEILQRLCLHDQLSVQHRGLVIAHNLLSADAELARKLVESELLEILTVVGKQEPDEKRAAVVQTARECLIKCMDYGFIKPVS
For the molecule B1, the apparent Kd of the inhibition of actin filament gliding velocity (myosin S1 fixed on nitrocellulose-coated coverslips, UNC-45B titrated in the assay buffer; 2.8 uM inhibited translocation completely) in assay [2] stood at 200 nM.
